Reference: publication PMC4738285 (Scientific Reports, 2016)

Target: T1, recombinant human Hsp70 (human, UniProt P0DMV8 1-641)
T1 construct: also called stress-inducible chaperone Hsp70
Assay: other fluorescence titration
Settings: both partners purified

T1 sequence (P0DMV8 whole entry): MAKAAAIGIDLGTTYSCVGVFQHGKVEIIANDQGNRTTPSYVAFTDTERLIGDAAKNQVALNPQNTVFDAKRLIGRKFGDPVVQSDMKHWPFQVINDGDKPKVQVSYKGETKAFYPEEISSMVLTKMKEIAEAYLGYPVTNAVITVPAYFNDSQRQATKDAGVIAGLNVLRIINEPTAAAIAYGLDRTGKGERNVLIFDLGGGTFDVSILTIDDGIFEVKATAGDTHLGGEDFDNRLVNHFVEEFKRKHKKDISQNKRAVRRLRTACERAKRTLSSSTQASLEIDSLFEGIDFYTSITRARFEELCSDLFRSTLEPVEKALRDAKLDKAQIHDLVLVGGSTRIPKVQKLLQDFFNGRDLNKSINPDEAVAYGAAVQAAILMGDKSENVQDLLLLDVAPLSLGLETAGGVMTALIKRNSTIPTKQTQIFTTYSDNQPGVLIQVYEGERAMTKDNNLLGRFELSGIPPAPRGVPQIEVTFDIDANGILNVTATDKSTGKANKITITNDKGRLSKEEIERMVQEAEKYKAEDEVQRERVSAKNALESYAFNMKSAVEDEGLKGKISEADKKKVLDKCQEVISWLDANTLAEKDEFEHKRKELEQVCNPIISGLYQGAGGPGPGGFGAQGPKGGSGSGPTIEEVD

## NRLLLTG (also called NR peptide) [peptide NRLLLTG]
  IC50: 11.5 ± 3.8 µM
